Experimental findings from US20230167458A1, “FORSKOLIN-INDUCIBLE PROMOTERS AND HYPOXIA-INDUCIBLE PROMOTERS” (ASKLEPIOS BIOPHARMACEUTICAL, INC., priority 2020, published 2023) are described below.

For one data set, the system named is HEK293-F. Kind of data set: Luciferase time course under hypoxia, transiently transfected HEK293-F. As to conditions: hypoxia 5% oxygen, printed order RTV-015, SYNP-HYP-001, RTV-016, HYBT, HV3C. The class given is cell-based, human. As to the method:
The constructs were initially used to drive luciferase expression in HEK293-F and HEK293-T in hypoxia.
40 ml of cells were grown in a 250 ml vented Erlenmeyer flask (Sigma-Aldrich CLS431144) at 37° C., 20% O2, 8% CO2 with agitation at 100 rpm. Cells were seeded as described in the manufacturer's instructions (300,000 cells/ml). HEK293-F were obtained from Thermofisher, R79007.
(§1) One day before transfection, the cells were counted using a haemocytometer and split to 500,000 cells/ml.
On the day of transfection, the cells are seeded to 1,000,000 cells/ml in 500 μl of appropriate medium (Freestyle 293 expression medium, 12338002) in a 24 well plate. […] of DNA per well was then added to 10 μl of OptiMem medium (Thermofisher; 11058021) and incubated for 5 minutes at room temperature.
Concurrently, 0.625 μl of Max reagent (Thermofisher, 16447100) was made up to 10 μl by addition of OptiMem and incubated for 5 minutes at room temperature. After this incubation, both mixes were added to the same tube and incubated at room temperature for 25-30 minutes. […]
After transfection the cells were incubated for 24 hrs in normoxia conditions (20% oxygen) before being switched to a gas mix of 5% oxygen, 10% carbon dioxide and 85% nitrogen (hypoxia). […] Induction of the promoters was assessed by using luciferase activity after 3, 5 and 24 hrs in hypoxia.
Luciferase activity was measured using LARII (Dual Luciferase Reporter 1000 assay system, Promega, E1980).
Media was removed from the cells at the respective time point (0, 3, 5, 24 hrs after induction). […] 10 μl of supernatant was pipetted into white 96-well plate and luminescence measured by addition of 50 μl of LARII substrate.
β-galactosidase activity was measured as per manufacturer's instructions (Mammalian βGalactosidase Assay Kit, 75707/75710, Thermo Scientific) using 25 μl of lysate. […] The mixture was incubated at 37° C. for 30 min and absorbance measured at 405 nm.
Luciferase readouts were normalised to β-galactosidase to produce normalised relative luminometer units (RLUs).

For another data set, the system named is CHO-GSK1SV. Briefly: Luciferase expression in normoxia vs 24 h hypoxia, transiently transfected CHO-GS suspension cells. To be noted: for relative rank of promoter strength: transient CHO-GSK1SV, hypoxia; for inducibility after 24 hours in hypoxia (rank) / luciferase activity in normoxia: transient CHO_GS. The class given is cell-based, chinese hamster. The procedure:
40 ml of cells were grown in a 250 ml vented Erlenmeyer flask (Sigma-Aldrich CLS431144) at 37° C., 20% O2, 8% CO2 with agitation at 100 rpm. Cells were seeded as at 300,000 cells/ml.
as §1
On the day of transfection, the cells are seeded to 1,000,000 cells/ml in 500 μl of appropriate medium (Thermofisher, CD-CHO 10743029) in a 24 well plate. […] of DNA per well was then added to 10 μl of OptiMem medium (Thermofisher; 11058021) and incubated for 5 minutes at room temperature.
Concurrently, 0.625 μl of Freestyle Max reagent (Thermofisher, 16447100) was made up to 10 μl by addition of OptiMem and incubated for 5 minutes at room temperature. After this incubation, both mixes were added to the same tube and incubated at room temperature for 25-30 minutes. The DNA/Max reagent mix (20 μl/well) was then added directly to the cells and the cells incubated at 37 C, 8% CO2 with agitation at 100 rpm.
The transfected DNA was one of the vectors where the promoter constructs (RTV-015, HYBT, RTV-016, HV3C) or a control promoter (CMV-IE) were used to drive luciferase expression and β-galactosidase containing pcDNA6 plasmid. The β-galactosidase containing plasmid was used as internal control for transfection efficiency (Thermofisher, V22020).
After transfection the cells were incubated for 24 hrs in normoxic conditions (20% oxygen). Induction of the promoters was assessed by using luciferase activity after 24 hrs in normoxia or hypoxia (5% oxygen, 10% carbon dioxide and 85% nitrogen). Hypoxia was achieved by gas displacement in a sealed hypoxia chamber. Luciferase activity was measured as described above.

B1: RTV-015: synthetic hypoxia-inducible promoter, SEQ ID NO: 81; 5 HRE1 elements spaced by 40 bp and minimal promoter MP1 (nucleic acid)
DNA: ACGTGCGATGATGCGTAGCTAGTAGTGATGATGCGTAGCTAGTAGTACGTGCGATGATGCGTAGCTAGTAGTGATGATGCGTAGCTAGTAGTACGTGCGATGATGCGTAGCTAGTAGTGATGATGCGTAGCTAGTAGTACGTGCGATGATGCGTAGCTAGTAGTGATGATGCGTAGCTAGTAGTACGTGCTTGGTACCATCCGGGCCGGCCGCTTAAGCGACGCCTATAAAAAATAGGTTGCATGCTAGGCCTAGCGCTGCCAGTCCATCTTCGCTAGCCTGTGCTGCGTCAGTCCAGCGCTGCGCTGCGTAACGGCCGCC
modifications: Synp-RTV-015
notes: 5 HRE1 elements spaced by 40 bp and minimal promoter MP1
Consider B1, for which the “relative rank of promoter activity” value with HEK293-F is given as “weakest”. In the data set with CHO-GSK1SV, the “relative rank of promoter strength” value is listed as “weakest”, the “inducibility after 24 hours in hypoxia (rank)” value is “lowest” and the “luciferase activity in normoxia” value is reported as “almost no luciferase activity”.

B2: HV3C: synthetic hypoxia-inducible promoter, SEQ ID NO: 85/87; 4 HRE3 elements and CMV minimal promoter (nucleic acid)
DNA: GATCTTTGTATTTAATTAAGACCTTGAGTACGTGCGTCTCTGCACGTATGGCGATTAAGACCTTGAGTACGTGCGTCTCTGCACGTATGGCGATTAAGACCTTGAGTACGTGCGTCTCTGCACGTATGGCGATTAAGACCTTGAGTACGTGCGTCTCTGCACGTATGGCGATTAATCCATATGCAGGTCTATATAAGCAGAGCTCGTTTAGTGAACCGTCAGATCGCCTAGATACGCCATCCACGCTGTTTTGACCTCCATAGAAGATCGCCACC
modifications: Synp-HV3C
notes: 4 HRE3 elements and CMV minimal promoter
In the case of B2, the “relative rank of promoter activity” value in the data set on HEK293-F is on record as “strongest”. In the data set on CHO-GSK1SV, the “relative rank of promoter strength” value is given as “strongest”, the “inducibility after 24 hours in hypoxia (rank)” value is “highest” and the “luciferase activity in normoxia” value is listed as “almost no luciferase activity”.
